From publication PMC2764309 (Science (New York, N.Y.), 2009)

Assays:
[1] = target: T1, HipA mutant D309Q (Escherichia coli, UniProt P23874 1-440, D309Q); experiment: fluorescence polarisation
T1 sequence: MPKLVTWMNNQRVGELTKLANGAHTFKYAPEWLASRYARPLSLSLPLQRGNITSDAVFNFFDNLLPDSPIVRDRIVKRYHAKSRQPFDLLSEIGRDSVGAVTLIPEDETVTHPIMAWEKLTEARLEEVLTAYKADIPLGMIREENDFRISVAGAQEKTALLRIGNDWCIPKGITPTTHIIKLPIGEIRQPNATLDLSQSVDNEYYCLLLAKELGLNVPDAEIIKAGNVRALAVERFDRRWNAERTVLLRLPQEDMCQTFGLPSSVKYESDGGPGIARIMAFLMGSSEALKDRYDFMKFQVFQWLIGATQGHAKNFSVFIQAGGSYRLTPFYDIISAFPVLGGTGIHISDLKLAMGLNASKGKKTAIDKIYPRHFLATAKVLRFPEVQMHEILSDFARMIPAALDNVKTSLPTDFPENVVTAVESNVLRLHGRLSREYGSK

[2] = target: T1, HipA mutant D309Q; experiment: crystal structure
[3] = target: the molecule itself; experiment: crystal structure

IREGGRTVGA [EF-Tu peptide IREGGRTVGA]
Kd [1]: 15 ± 5 µM

B1: HipB (natural protein)
chain: MMSFQKIYSPTQLANAMKLVRQQNGWTQSELAKKIGIKQATISNFENNPDNTTLTTFFKILQSLELSMTLCDAKNASPESTEQQNLEW
binding result [2]: binds | stoichiometry N [3]: 2
